The target of data set [1] is T1, drDDC (Drosophila melanogaster, UniProt P05031, T117A/DEL476-510, form not given).
T1 construct: gene Ddc; homodimer, PLP holoenzyme; residues 1-475
T1 sequence (P05031 1-475 isoform P05031-2 T82A): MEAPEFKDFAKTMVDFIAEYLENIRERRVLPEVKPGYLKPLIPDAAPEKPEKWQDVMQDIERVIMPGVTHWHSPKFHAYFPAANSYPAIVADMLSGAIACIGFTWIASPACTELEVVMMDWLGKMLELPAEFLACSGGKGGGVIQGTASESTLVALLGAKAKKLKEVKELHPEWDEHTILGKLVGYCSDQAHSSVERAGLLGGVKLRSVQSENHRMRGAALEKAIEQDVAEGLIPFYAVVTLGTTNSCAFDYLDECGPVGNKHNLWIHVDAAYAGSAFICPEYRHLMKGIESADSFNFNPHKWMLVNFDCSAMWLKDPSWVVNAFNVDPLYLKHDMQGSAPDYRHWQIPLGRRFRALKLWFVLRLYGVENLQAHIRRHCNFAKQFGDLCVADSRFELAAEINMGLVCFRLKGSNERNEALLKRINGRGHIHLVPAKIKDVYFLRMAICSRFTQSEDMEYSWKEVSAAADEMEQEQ
The experiment in a line: HPLC-UV of decarboxylated product, Michaelis-Menten fit. The settings on record: 38°C, 40 µM PLP, 150 mM potassium phosphate pH 7.0. It is filed as biochemical. From the text:
(§1) HPLC-UV of decarboxylated product, Michaelis-Menten fit on drDDC

Data set [2] concerns the target T2, drDDC (Drosophila melanogaster, UniProt P05031, T117S/DEL476-510, form not given).
T2 construct: gene Ddc; homodimer, PLP holoenzyme; residues 1-475
T2 sequence (P05031 1-475 isoform P05031-2 T82S): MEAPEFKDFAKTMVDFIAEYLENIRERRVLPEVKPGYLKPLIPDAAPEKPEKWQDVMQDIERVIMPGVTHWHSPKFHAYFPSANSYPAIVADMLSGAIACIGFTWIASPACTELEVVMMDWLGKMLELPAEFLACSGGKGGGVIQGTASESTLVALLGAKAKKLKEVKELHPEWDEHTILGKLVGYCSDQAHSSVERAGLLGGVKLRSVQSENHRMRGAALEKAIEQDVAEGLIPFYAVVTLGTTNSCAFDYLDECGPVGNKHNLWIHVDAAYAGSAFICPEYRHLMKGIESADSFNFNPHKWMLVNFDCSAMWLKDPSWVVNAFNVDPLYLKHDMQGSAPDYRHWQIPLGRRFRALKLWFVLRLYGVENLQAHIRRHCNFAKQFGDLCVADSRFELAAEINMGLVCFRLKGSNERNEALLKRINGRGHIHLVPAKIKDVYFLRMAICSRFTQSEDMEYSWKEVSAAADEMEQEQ
The data set is described as above. The settings on record: 38°C, 40 µM PLP, 150 mM potassium phosphate pH 7.0. In kind it is biochemical.
From the text: as §1

Data set [3] deals with T3, drDDC (Drosophila melanogaster, UniProt P05031, H227W/DEL476-510, form not given).
T3 construct: gene Ddc; homodimer, PLP holoenzyme; residues 1-475
T3 sequence (P05031 1-475 isoform P05031-2 H192W): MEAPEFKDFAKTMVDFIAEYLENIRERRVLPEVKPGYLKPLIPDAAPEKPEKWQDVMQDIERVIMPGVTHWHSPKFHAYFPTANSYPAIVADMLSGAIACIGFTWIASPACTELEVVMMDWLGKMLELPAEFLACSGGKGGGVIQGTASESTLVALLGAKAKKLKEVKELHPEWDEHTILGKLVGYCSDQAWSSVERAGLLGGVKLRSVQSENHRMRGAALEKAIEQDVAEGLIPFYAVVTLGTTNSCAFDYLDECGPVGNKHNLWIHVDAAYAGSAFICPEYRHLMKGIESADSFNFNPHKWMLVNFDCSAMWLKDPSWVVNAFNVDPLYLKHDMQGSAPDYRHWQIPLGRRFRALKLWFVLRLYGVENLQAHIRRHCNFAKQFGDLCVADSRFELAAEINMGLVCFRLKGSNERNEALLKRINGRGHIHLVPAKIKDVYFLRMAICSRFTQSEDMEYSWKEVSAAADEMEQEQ
Described as above. It is filed as biochemical. The settings on record: 38°C, 40 µM PLP, 150 mM potassium phosphate pH 7.0.
From the text: as §1

For data set [4], the target named is T4, drDDC (Drosophila melanogaster, UniProt P05031).
T4 construct: gene Ddc; homodimer, PLP holoenzyme; residues 1-475
T4 sequence (P05031 36-510): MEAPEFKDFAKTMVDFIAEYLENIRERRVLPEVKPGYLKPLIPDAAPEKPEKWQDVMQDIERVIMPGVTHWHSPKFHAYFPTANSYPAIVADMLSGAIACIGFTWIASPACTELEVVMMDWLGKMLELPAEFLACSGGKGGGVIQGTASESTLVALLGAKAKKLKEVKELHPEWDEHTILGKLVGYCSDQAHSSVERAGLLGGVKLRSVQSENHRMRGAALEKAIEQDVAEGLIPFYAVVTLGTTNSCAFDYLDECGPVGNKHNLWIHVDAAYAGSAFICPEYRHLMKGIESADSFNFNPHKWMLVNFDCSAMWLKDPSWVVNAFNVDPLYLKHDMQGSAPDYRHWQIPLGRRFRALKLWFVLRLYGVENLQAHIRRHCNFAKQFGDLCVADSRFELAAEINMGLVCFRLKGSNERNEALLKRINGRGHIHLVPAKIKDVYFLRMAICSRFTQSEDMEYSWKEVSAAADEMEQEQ
Put plainly: X-ray crystal structure, […] Å. It is filed as binding. Conditions: covalent internal aldimine (Schiff base) with K302.

Substrate in data set [5]: NC(Cc1cccc(O)c1)C(=O)O
The experiment in a line: HPLC-UV of decarboxylated product, Michaelis-Menten fit. It is filed as biochemical, Drosophila melanogaster. The settings on record: 38°C, 40 µM PLP, 150 mM potassium phosphate pH 7.0, racemic DL substrate.
From the text: as §1

Substrate in data set [6]: N[C@@H](Cc1ccc(O)c(O)c1)C(=O)O
The description is as above. It is filed as biochemical, Drosophila melanogaster. Conditions: 38°C, 40 µM PLP, 150 mM potassium phosphate pH 7.0.
From the text: as §1

Substrate in data set [7]: NC(Cc1ccccc1O)C(=O)O
The data set is described as above. It is filed as biochemical, Drosophila melanogaster. Conditions: 38°C, 40 µM PLP, 150 mM potassium phosphate pH 7.0, racemic DL substrate.
From the text: as §1

Substrate in data set [8]: N[C@@H](Cc1c[nH]c2ccc(O)cc12)C(=O)O
The data set is described as above. In kind it is biochemical, Drosophila melanogaster. Conditions: 38°C, 40 µM PLP, 150 mM potassium phosphate pH 7.0.
From the text: as §1

Data set [9] deals with the molecule itself. The experiment in a line: crystal structure; hanging-drop vapor diffusion; 15% PEG 4000, 20% glycerol, 200 mM CaCl2, 100 mM cacodylic acid pH 6.5; molecular replacement with pig DDC (1js3); two molecules in the asymmetric unit.

The Km is the substrate concentration at which the rate is half of its maximum. As for `NC(Cc1ccccc1O)C(=O)O` (racemic) [o-tyr, DL-o-tyrosine], in data set [1] (racemic DL substrate), the Km was 4.9 ± 1.5 mM.
Regarding `N[C@@H](Cc1ccc(O)c(O)c1)C(=O)O` [DOPA], the Michaelis constant (Km) in [2] was found to be 4.5 ± 0.9 mM; in data set [1], 5.6 ± 1 mM; in [3], 4.4 ± 0.8 mM.
For `N[C@@H](Cc1c[nH]c2ccc(O)cc12)C(=O)O` [5-HTP], in that order: 0.6 ± 0.1 mM, 3.5 ± 0.5 mM and 1.1 ± 0.1 mM.
Consider `Cc1ncc(COP(=O)(O)O)c(C=O)c1O` [PLP], for which, in data set [4], the “X-ray crystal structure, 1.75 Å” value is “The cofactor PLP binds to K302 through a Schiff base linkage”.
Turning to `NC(Cc1cccc(O)c1)C(=O)O` (racemic) [m-tyr, DL-m-tyrosine], the Michaelis constant (Km) in data set [2] (racemic DL substrate) was 11.4 ± 2.2 mM; in data set [1] (racemic DL substrate), 13.3 ± 4.5 mM; in data set [3] (racemic DL substrate), 2.6 ± 1.1 mM.

B1: drDDC (Drosophila melanogaster) (protein)
chain: MEAPEFKDFAKTMVDFIAEYLENIRERRVLPEVKPGYLKPLIPDAAPEKPEKWQDVMQDIERVIMPGVTHWHSPKFHAYFPTANSYPAIVADMLSGAIACIGFTWIASPACTELEVVMMDWLGKMLELPAEFLACSGGKGGGVIQGTASESTLVALLGAKAKKLKEVKELHPEWDEHTILGKLVGYCSDQAHSSVERAGLLGGVKLRSVQSENHRMRGAALEKAIEQDVAEGLIPFYAVVTLGTTNSCAFDYLDECGPVGNKHNLWIHVDAAYAGSAFICPEYRHLMKGIESADSFNFNPHKWMLVNFDCSAMWLKDPSWVVNAFNVDPLYLKHDMQGSAPDYRHWQIPLGRRFRALKLWFVLRLYGVENLQAHIRRHCNFAKQFGDLCVADSRFELAAEINMGLVCFRLKGSNERNEALLKRINGRGHIHLVPAKIKDVYFLRMAICSRFTQSEDMEYSWKEVSAAADEMEQEQ
notes: homodimer, PLP holoenzyme; residues 1-475
As a reminder, the kcat is the maximal rate divided by the concentration of active sites. By kcat/Km is commonly meant the turnover number divided by the Michaelis constant. With B1, the Km came to 2.3 ± 1.2 mM in [5], 2.2 ± 0.3 mM in data set [6], 1.1 ± 0.3 mM in [7] and 0.4 ± 0.04 mM in [8]. Moreover, the kcat is 3.56 ± 0.673 s⁻¹ in data set [5], 4.7 ± 0.0267 s⁻¹ in data set [6], 1.85 ± 0.133 s⁻¹ in data set [7] and 1.05 ± 0.0233 s⁻¹ in [8]. The kcat/Km in [5] amounted to 1550 M⁻¹ s⁻¹; in [6] it was 2140 M⁻¹ s⁻¹; in data set [7], 1680 M⁻¹ s⁻¹; in [8], 2620 M⁻¹ s⁻¹.

B2: Drosophila melanogaster 3,4-dihydroxyphenylalanine decarboxylase, wild type (enzyme, UniProt P05031-2 1-475, looked up)
chain: MEAPEFKDFAKTMVDFIAEYLENIRERRVLPEVKPGYLKPLIPDAAPEKPEKWQDVMQDIERVIMPGVTHWHSPKFHAYFPTANSYPAIVADMLSGAIACIGFTWIASPACTELEVVMMDWLGKMLELPAEFLACSGGKGGGVIQGTASESTLVALLGAKAKKLKEVKELHPEWDEHTILGKLVGYCSDQAHSSVERAGLLGGVKLRSVQSENHRMRGAALEKAIEQDVAEGLIPFYAVVTLGTTNSCAFDYLDECGPVGNKHNLWIHVDAAYAGSAFICPEYRHLMKGIESADSFNFNPHKWMLVNFDCSAMWLKDPSWVVNAFNVDPLYLKHDMQGSAPDYRHWQIPLGRRFRALKLWFVLRLYGVENLQAHIRRHCNFAKQFGDLCVADSRFELAAEINMGLVCFRLKGSNERNEALLKRINGRGHIHLVPAKIKDVYFLRMAICSRFTQSEDMEYSWKEVSAAADEMEQEQ
modifications: lysine-pyridoxal-5-phosphate (LLP): PLP bound to K302 through a Schiff base (internal aldimine)
notes: the forward primer begins at ATG GAG GCG CCG GAG TTC (MEAPEF); also called drDDC; drDDC WT; source: Escherichia coli DE3, purified (chitin beads, DEAE-Sepharose, Mono-Q, gel filtration)
In general, stoichiometry N refers to the number of molecules, sites or subunits per partner or assembly. Regarding B2, the “stoichiometry N” value in data set [9] was found to be 2.

The record behind these values is PMC2809104, “Crystal Structure and Substrate Specificity of Drosophila 3,4-Dihydroxyphenylalanine Decarboxylase” (PLoS ONE, 2010).
